In the supplement of paper PMC7125110:
± gives the standard error. For part of these data: This sample holds only a part of the variants without activity.

B1: glmS ribozyme (parent)
chain: AUAAAAGCGCCAGAACUACAGAAAUGUAGUUGACGAGGAGGAGGUUUAUCGAAUUUUCGGCGGAUGCCUCCAAA

Columns and labels:
Settings in all cases: with glucosamine-6-phosphate
[1] = variants of: B1; experiment: kcat; higher = faster cleavage; RNA array
Procedure, shortened: (§1)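 Weighted Michaelis–Menten fits across concentrations supplied kcat and KM, based on kobs from one- or two-exponential decay fits to normalised per-tile medians. The data came from barcoded ribozyme variants transcribed in situ by E. coli RNA polymerase on sequenced MiSeq chips and tracked at 37 °C by a hybridised Cy3 probe. Glucosamine-6-phosphate (40 μM to 10 mM) in HEPES/KCl/Mg(OAc)2 buffer was flowed in.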

[2] = variants of: B1; experiment: KM; higher = weaker cofactor use; RNA array
Procedure, shortened: as §1

[3] = variants of: B1; experiment: self-cleavage kobs at 40 uM GlcN6P; higher = faster cleavage; RNA array
Procedure, shortened: as §1

[4] = variants of: B1; experiment: self-cleavage kobs at 160 uM GlcN6P; higher = faster cleavage; RNA array
Procedure, shortened: as §1

[5] = variants of: B1; experiment: self-cleavage kobs at 640 uM GlcN6P; higher = faster cleavage; RNA array
Procedure, shortened: as §1

[6] = variants of: B1; experiment: self-cleavage kobs at 2500 uM GlcN6P; higher = faster cleavage; RNA array
Procedure, shortened: as §1

[7] = variants of: B1; experiment: self-cleavage kobs at 10000 uM GlcN6P; higher = faster cleavage; RNA array
Procedure, shortened: as §1

Variant: U45G C67U
- kcat [1]: 0.00709 ± 0.0025 s⁻¹
- KM [2]: 2100 ± 1100 µM
- self-cleavage kobs at 40 uM GlcN6P [3]: 0.000204 ± 3.5e-05 s⁻¹
- self-cleavage kobs at 160 uM GlcN6P [4]: 0.000462 ± 6.3e-05 s⁻¹
- self-cleavage kobs at 640 uM GlcN6P [5]: 0.00181 ± 0.00028 s⁻¹
- self-cleavage kobs at 2500 uM GlcN6P [6]: 0.00248 ± 0.00057 s⁻¹
- self-cleavage kobs at 10000 uM GlcN6P [7]: 0.00733 ± 0.00094 s⁻¹

Variant: U49G U56G
- kcat [1]: 0.000717 ± 1.9e-05 s⁻¹
- KM [2]: 4760 ± 210 µM
- self-cleavage kobs at 640 uM GlcN6P [5]: 8.38e-05 ± 1.5e-05 s⁻¹
- self-cleavage kobs at 2500 uM GlcN6P [6]: 0.000254 ± 4.7e-05 s⁻¹
- self-cleavage kobs at 10000 uM GlcN6P [7]: 0.000484 ± 5.8e-05 s⁻¹

Variant: G13A U30A
- kcat [1]: 0.000292 ± 4.6e-05 s⁻¹
- KM [2]: 3630 ± 960 µM
- self-cleavage kobs at 160 uM GlcN6P [4]: < 1e-05 s⁻¹
- self-cleavage kobs at 640 uM GlcN6P [5]: 3.94e-05 ± 1.3e-05 s⁻¹
- self-cleavage kobs at 2500 uM GlcN6P [6]: 0.000128 ± 2.3e-05 s⁻¹
- self-cleavage kobs at 10000 uM GlcN6P [7]: 0.000202 ± 5.4e-05 s⁻¹

Variant: A15C A64C
- kcat [1]: 1.33e-05 ± 4.6e-06 s⁻¹

Variant: U31G A39C
- kcat [1]: 0.00339 ± 0.0008 s⁻¹
- KM [2]: 3130 ± 1100 µM
- self-cleavage kobs at 160 uM GlcN6P [4]: 0.000147 ± 3.4e-05 s⁻¹
- self-cleavage kobs at 640 uM GlcN6P [5]: 0.000584 ± 0.00012 s⁻¹
- self-cleavage kobs at 2500 uM GlcN6P [6]: 0.00195 ± 0.00036 s⁻¹
- self-cleavage kobs at 10000 uM GlcN6P [7]: 0.00236 ± 0.00045 s⁻¹

Variant: U30A G66U
- kcat [1]: 0.000236 ± 1.9e-05 s⁻¹
- KM [2]: 1720 ± 340 µM
- self-cleavage kobs at 640 uM GlcN6P [5]: 5.93e-05 ± 7.9e-06 s⁻¹
- self-cleavage kobs at 2500 uM GlcN6P [6]: 0.000159 ± 1.6e-05 s⁻¹
- self-cleavage kobs at 10000 uM GlcN6P [7]: 0.000195 ± 1.5e-05 s⁻¹

Variant: C16U G38U C71U
- kcat [1]: 1.14e-05 ± 2e-06 s⁻¹

Variant: C58G C70G
- kcat [1]: 5.46e-05 ± 1.6e-05 s⁻¹
- self-cleavage kobs at 160 uM GlcN6P [4]: 4.69e-05 ± 1.8e-05 s⁻¹
- self-cleavage kobs at 640 uM GlcN6P [5]: 7.73e-05 ± 2e-05 s⁻¹
- self-cleavage kobs at 2500 uM GlcN6P [6]: 5.92e-05 ± 1.4e-05 s⁻¹

Variant: A14U C16A
- kcat [1]: 0.000551 ± 6.3e-05 s⁻¹
- KM [2]: 1840 ± 400 µM
- self-cleavage kobs at 160 uM GlcN6P [4]: 5.14e-05 ± 1.1e-05 s⁻¹
- self-cleavage kobs at 640 uM GlcN6P [5]: 0.000126 ± 1.9e-05 s⁻¹
- self-cleavage kobs at 2500 uM GlcN6P [6]: 0.000363 ± 4.8e-05 s⁻¹
- self-cleavage kobs at 10000 uM GlcN6P [7]: 0.000451 ± 5.1e-05 s⁻¹

Variant: G44U A53C
- kcat [1]: 0.000114 ± 1.6e-05 s⁻¹
- KM [2]: 1360 ± 610 µM
- self-cleavage kobs at 2500 uM GlcN6P [6]: 8.9e-05 ± 1.7e-05 s⁻¹
- self-cleavage kobs at 10000 uM GlcN6P [7]: 9.5e-05 ± 1.6e-05 s⁻¹

Variant: U47G U69G
- kcat [1]: 5.3e-05 ± 8.9e-06 s⁻¹
- self-cleavage kobs at 40 uM GlcN6P [3]: 4.11e-05 ± 9e-06 s⁻¹
- self-cleavage kobs at 160 uM GlcN6P [4]: 5.87e-05 ± 1.3e-05 s⁻¹
- self-cleavage kobs at 640 uM GlcN6P [5]: 7.19e-05 ± 9.1e-06 s⁻¹
- self-cleavage kobs at 2500 uM GlcN6P [6]: 7.13e-05 ± 9.6e-06 s⁻¹
- self-cleavage kobs at 10000 uM GlcN6P [7]: 4.09e-05 ± 5.2e-06 s⁻¹

Variant: A12U G40A C71U
- kcat [1]: 0.101 ± 0.05 s⁻¹
- self-cleavage kobs at 40 uM GlcN6P [3]: 0.00209 ± 0.0003 s⁻¹
- self-cleavage kobs at 640 uM GlcN6P [5]: 0.0194 ± 0.007 s⁻¹
- self-cleavage kobs at 10000 uM GlcN6P [7]: 0.116 ± 0.047 s⁻¹

Variant: U31C G32C
- kcat [1]: 0.000493 ± 0.00011 s⁻¹
- KM [2]: 4480 ± 2100 µM
- self-cleavage kobs at 2500 uM GlcN6P [6]: 0.00017 ± 2.6e-05 s⁻¹
- self-cleavage kobs at 10000 uM GlcN6P [7]: 0.000344 ± 3.5e-05 s⁻¹

Variant: G32A U55C
- kcat [1]: 0.00196 ± 0.00036 s⁻¹
- KM [2]: 2790 ± 760 µM
- self-cleavage kobs at 160 uM GlcN6P [4]: 9.47e-05 ± 1.6e-05 s⁻¹
- self-cleavage kobs at 640 uM GlcN6P [5]: 0.000403 ± 4.8e-05 s⁻¹
- self-cleavage kobs at 2500 uM GlcN6P [6]: 0.00122 ± 0.0002 s⁻¹
- self-cleavage kobs at 10000 uM GlcN6P [7]: 0.00143 ± 0.00018 s⁻¹

Variant: G41A G66A
- kcat [1]: 0.0028 ± 0.0014 s⁻¹
- self-cleavage kobs at 40 uM GlcN6P [3]: 6.67e-05 ± 1.2e-05 s⁻¹
- self-cleavage kobs at 160 uM GlcN6P [4]: 0.000116 ± 3.7e-05 s⁻¹
- self-cleavage kobs at 640 uM GlcN6P [5]: 0.000562 ± 8.6e-05 s⁻¹
- self-cleavage kobs at 2500 uM GlcN6P [6]: 0.000832 ± 0.00018 s⁻¹
- self-cleavage kobs at 10000 uM GlcN6P [7]: 0.0028 ± 0.00037 s⁻¹

Variant: U45G U65C
- kcat [1]: 9.08e-05 ± 1.1e-05 s⁻¹
- KM [2]: 3060 ± 1100 µM
- self-cleavage kobs at 2500 uM GlcN6P [6]: 4.24e-05 ± 1.4e-05 s⁻¹
- self-cleavage kobs at 10000 uM GlcN6P [7]: 6.91e-05 ± 1.3e-05 s⁻¹
